The values that follow come from article PMC3272839.

This experiment addresses LRP1 minireceptor of domain IV, mLRP4 (UniProt Q07954). Briefly: flow cytometry on cells.
UniProt Q07954, sequence (Q07954 20-4544): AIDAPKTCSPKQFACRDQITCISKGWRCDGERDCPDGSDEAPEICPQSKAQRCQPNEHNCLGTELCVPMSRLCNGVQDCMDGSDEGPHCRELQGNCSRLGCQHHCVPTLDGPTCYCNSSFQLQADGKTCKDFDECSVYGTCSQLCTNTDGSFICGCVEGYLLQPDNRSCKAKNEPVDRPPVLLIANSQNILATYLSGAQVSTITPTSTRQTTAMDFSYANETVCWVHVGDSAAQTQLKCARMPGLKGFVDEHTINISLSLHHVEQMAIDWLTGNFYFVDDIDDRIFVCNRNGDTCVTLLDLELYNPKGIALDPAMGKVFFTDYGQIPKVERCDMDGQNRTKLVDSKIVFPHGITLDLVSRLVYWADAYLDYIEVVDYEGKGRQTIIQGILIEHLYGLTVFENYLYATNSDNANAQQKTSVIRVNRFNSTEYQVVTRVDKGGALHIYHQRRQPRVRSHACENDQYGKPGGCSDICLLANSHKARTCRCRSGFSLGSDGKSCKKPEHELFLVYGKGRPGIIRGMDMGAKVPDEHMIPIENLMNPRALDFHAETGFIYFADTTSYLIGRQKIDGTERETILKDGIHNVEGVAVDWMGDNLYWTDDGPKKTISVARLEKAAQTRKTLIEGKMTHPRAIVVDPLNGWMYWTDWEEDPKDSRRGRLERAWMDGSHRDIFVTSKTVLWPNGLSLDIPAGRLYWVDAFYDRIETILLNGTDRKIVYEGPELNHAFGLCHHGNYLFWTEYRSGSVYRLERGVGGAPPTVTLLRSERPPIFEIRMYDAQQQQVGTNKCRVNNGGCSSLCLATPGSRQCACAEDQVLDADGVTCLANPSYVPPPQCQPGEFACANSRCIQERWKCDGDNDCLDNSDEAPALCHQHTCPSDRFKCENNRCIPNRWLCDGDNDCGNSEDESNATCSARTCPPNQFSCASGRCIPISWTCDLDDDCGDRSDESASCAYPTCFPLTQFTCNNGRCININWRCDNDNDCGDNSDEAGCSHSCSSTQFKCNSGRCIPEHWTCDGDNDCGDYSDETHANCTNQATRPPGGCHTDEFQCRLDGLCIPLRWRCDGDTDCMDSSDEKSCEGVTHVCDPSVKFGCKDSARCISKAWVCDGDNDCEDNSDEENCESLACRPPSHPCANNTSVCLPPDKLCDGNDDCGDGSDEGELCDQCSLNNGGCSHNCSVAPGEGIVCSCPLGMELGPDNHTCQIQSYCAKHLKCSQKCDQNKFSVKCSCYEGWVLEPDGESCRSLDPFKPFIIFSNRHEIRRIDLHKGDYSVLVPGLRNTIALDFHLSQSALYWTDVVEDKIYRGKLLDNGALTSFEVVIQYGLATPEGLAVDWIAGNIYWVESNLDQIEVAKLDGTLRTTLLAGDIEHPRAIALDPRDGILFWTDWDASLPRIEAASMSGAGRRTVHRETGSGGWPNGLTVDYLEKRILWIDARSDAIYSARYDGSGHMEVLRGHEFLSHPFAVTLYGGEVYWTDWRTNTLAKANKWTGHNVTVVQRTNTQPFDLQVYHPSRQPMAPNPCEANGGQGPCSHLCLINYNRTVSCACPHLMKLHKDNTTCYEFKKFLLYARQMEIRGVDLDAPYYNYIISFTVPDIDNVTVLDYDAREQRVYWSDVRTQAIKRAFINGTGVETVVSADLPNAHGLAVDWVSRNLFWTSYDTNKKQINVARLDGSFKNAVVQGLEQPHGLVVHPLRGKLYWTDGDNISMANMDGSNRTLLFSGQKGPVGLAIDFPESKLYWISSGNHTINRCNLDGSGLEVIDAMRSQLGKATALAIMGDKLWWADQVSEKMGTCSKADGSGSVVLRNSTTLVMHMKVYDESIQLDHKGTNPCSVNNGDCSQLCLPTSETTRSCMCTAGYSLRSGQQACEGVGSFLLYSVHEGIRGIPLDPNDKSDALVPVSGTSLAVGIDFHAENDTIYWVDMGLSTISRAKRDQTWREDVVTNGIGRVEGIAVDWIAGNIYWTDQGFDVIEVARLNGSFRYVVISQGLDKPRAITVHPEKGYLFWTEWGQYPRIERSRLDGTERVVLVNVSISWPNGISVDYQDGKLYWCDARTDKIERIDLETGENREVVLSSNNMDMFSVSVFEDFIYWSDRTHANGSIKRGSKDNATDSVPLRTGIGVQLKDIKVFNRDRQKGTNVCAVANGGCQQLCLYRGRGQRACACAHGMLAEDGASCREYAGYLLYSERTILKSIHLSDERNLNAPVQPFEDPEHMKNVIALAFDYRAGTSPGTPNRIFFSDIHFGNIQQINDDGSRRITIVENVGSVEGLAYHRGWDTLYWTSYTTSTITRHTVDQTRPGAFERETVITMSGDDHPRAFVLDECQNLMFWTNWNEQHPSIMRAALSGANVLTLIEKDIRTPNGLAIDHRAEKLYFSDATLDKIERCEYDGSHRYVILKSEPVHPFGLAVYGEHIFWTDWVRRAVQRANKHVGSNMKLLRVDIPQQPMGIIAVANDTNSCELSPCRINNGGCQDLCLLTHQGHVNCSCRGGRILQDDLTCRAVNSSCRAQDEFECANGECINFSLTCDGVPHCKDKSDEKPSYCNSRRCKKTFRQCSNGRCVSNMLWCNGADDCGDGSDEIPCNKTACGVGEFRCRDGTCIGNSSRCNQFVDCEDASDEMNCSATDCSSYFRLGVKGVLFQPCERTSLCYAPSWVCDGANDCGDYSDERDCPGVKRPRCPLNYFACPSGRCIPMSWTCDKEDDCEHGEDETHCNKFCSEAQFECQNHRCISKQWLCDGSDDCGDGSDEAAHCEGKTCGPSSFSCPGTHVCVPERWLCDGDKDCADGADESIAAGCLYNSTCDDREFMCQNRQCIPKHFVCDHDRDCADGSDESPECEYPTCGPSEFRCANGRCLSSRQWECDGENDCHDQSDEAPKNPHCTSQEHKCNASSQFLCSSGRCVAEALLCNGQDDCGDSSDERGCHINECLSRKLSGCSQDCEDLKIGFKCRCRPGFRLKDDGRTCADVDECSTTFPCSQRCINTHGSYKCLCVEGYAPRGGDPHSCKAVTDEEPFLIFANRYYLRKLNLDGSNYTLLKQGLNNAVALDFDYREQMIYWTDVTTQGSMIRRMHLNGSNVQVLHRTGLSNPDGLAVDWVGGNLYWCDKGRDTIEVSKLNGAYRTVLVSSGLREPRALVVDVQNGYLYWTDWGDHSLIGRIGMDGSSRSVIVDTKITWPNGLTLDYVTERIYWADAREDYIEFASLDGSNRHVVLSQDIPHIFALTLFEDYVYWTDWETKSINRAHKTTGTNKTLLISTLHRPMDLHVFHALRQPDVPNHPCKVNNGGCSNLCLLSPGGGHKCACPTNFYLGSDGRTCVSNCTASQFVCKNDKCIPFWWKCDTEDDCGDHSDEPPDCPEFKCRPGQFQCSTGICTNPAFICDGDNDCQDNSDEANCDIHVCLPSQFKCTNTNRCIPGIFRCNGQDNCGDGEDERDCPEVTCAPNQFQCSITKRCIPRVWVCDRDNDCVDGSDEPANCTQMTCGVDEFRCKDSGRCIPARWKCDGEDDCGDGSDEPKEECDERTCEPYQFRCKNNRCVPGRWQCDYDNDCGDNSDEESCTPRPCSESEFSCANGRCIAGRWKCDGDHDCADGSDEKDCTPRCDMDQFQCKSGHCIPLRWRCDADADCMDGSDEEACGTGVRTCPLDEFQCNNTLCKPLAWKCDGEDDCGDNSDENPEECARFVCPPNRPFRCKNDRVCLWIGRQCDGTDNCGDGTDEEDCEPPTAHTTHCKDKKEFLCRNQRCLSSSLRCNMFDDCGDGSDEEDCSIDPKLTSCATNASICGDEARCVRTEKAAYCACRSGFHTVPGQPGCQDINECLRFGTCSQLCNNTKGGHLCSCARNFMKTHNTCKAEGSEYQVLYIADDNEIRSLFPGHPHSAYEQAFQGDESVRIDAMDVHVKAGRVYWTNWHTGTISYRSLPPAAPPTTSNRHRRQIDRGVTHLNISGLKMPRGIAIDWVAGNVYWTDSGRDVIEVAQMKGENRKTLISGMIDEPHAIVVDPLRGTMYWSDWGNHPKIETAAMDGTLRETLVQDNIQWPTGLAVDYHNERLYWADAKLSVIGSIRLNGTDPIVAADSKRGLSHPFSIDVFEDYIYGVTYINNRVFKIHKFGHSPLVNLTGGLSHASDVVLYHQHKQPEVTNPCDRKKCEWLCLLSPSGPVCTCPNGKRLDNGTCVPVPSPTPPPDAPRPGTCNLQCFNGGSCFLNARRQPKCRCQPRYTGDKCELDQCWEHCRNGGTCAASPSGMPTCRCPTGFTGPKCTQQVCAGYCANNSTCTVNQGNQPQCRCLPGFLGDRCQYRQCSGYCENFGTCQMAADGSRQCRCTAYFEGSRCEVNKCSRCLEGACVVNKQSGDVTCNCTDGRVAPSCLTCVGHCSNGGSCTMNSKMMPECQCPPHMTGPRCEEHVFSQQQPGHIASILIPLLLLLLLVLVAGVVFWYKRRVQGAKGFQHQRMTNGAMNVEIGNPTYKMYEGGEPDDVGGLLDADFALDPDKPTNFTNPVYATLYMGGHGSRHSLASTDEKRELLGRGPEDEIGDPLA

“Alexa488-labeled receptor-associated protein (RAP) (from UniProt P30533 35-357) (ligand)” displayed a fold RAP binding against N2a-pcDNA3 cells (fold of N2a-pcDNA3 cells) of 2.2.
